The data set deals with the molecule itself. Nature of the data set: size-exclusion chromatography, titration of apoSFP with biliverdin; self-association of subunits (apo protein is monomeric, no dimer fraction seen). (SEC sorts molecules by how far they enter the pores of the column.)

B1: Recombinant wild-type Sandercyanin fluorescent protein (SFP) lacking the signal peptide (other)
chain: MFIKPGRCPKPAVQEDFDAARYLGVWYDIQRLPNKFQKGECATATYSLSPGVGFSVFNRERLANGTIKSVIGSAIAEDPCEPAKLQFFHENAAPVPYWVLSTDYDNYALVYSCINLGASHAAYASIVSRQPTLPEETIKKLQGTMSSFGVGVDTLLTTNQDAAYCSAMNQ
notes: the apo protein is a monomer in solution; also called wtSFP; wild-type SFP
Consider B1, for which the binding result is “binds”.

The values above are taken from patent publication US20210347833A1 (WISYS TECHNOLOGY FOUNDATION, published 2021).
